The results in this text go back to the supplement of paper PMC12042874.

± gives the uncertainty stated by the source.

This series can be described thus: amyloid nucleation score (Sup35N fusion, yeast selection) (log enrichment); library NNK2; higher = more nucleation; inactive = no reads after selection. The method in brief: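 Peptides of 20 random codons fused to Sup35N were expressed in psi-negative yeast, induced 24 hours with 100 μM copper sulfate, then grown 7 days at 30°C on medium lacking adenine and uracil. Input and output plasmid inserts were Illumina-sequenced. Nucleation score is the DiMSum log enrichment of output over input reads, centred on the mode score of non-aggregating sequences, excluding sequences with under 100 input reads. Random libraries had three technical output replicates.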
Take TDLASKAS: the amyloid nucleation score is -0.194 ± 0.48.

SAATPCVY registered an amyloid nucleation score of 0.778 ± 0.25. In turn, YRPMEGRLKWSMTVLIVSLY came in with an amyloid nucleation score of 0.497 ± 0.46. Next, PGIVRGPYYGNMVIFLLKMF: 2.89 ± 0.19; LCNKVL: 0.27 ± 0.27; DKHYINASVSHEPSKNR: -0.724 ± 0.46. Next, LYYASGRIRFCLHWHLIARV: 4.894 ± 0.041.

As for MMSLPTLQSW, the amyloid nucleation score entry is “inactive”. Next, SGILREPVMIQVSVLQEQHW: 5.025 ± 0.045; NMYFCLFFRIVLLLGNDKIA: -1.06 ± 0.6.

With IRVYRGGLFNSLKKENVGAC, the amyloid nucleation score entry is “inactive”.

Substance ILWNLNY had an amyloid nucleation score of -0.596 ± 0.4.

Substance QLVLQVNRYVYRIMSTLTLS gave an amyloid nucleation score of 0.848 ± 0.52. To YYSAHAKSAGLM belongs 1.2 ± 0.48; to FTFVWNVVQFGTFYGSHLRG, 4.5 ± 0.071; to DVLVINKLHLRWAGFDARGI, 5.05 ± 0.1. WLEDAS registered an amyloid nucleation score of -0.557 ± 1.1. Next, TDLWFRLATRCNDNDAFFL: -0.981 ± 1.1; RVEGFRFYFEVRLGSVSRKL: -0.42 ± 0.76. Next, SREIWRLYDI: -0.124 ± 0.8; YIVSSDLTGWGARRSCDFMA: 0.571 ± 0.47; SELWYVPLANVE: 0.242 ± 0.5.

LTVRS gave an amyloid nucleation score of -0.42 ± 0.76. To FWPYRPCKLYVIYLR belongs “inactive”. TLTYFLNSSWD registered an amyloid nucleation score of 1.93 ± 0.25.

In the case of LMYVGFTRMRKKINRKVYLV, the amyloid nucleation score worked out at 3.19 ± 0.1. Next, YFYYRFGHDVVF: “inactive”. Next, LGAGTSWAWLNLTYSEGTYK: 0.27 ± 0.8.

In the case of LLCGRYGMECFTRA, the amyloid nucleation score entry was “inactive”.

Substance TMGKCITIGPAFIHNT had an amyloid nucleation score of 1.51 ± 0.32. To SYCKPTVIACVMLSCQQ belongs 8.866 ± 0.067.

Consider KVSAPHCRLGFWCILC, for which the amyloid nucleation score entry was “inactive”. To GKIKIEGNDLIGGLQGRLRP belongs “inactive”; to GHVCKFHTLHWR, -1.17 ± 0.61. To CLFVQSRIDYALNNLTVC belongs -0.755 ± 0.48; to YPWRYIFLSDPAGLIQTCRF, -1.34 ± 0.54; to EVFGGFTRRRCVVLPRHRAW, 1.9 ± 0.27. To SDYYVFTDVFVGGYNLDE belongs -1.04 ± 1. As for NNFATLSKL, the amyloid nucleation score result is “inactive”. To EVHASYVRTSWDVCTWVGHV belongs 2.29 ± 0.26; to WMWDFFYTGLLMRTF, “inactive”; to PLDLYSVSIISLFEYIGVVR, -0.948 ± 1. To NLNFDPGVLF belongs “inactive”. To TAQILLSTGSVLHLMLGGSP belongs 3.02 ± 0.088; to DYGNLYL, -0.291 ± 1.1. Take QVSYNLCNR: the amyloid nucleation score result is “inactive”.

Regarding LLSECWLESGPSGASTC, the amyloid nucleation score worked out at 1.5 ± 0.5. Take YANDELLGAGGADS: the amyloid nucleation score was found to be 0.652 ± 0.35.

FPDSSEISHGAVHLLQVCPL registered an amyloid nucleation score of -0.313 ± 0.33.

ESSIRHRGMERRCRLHKRH: the amyloid nucleation score was found to be 0.546 ± 0.39. To PCGSCPRLQQIVSRDGDDAG belongs 2.71 ± 0.21; to GMNLNLPTQTHTSVRHNRG, 2.75 ± 0.14; to VWTIPRS, 0.012 ± 0.5.

As for YMTTNRKPLDFYQHVYLMKV, the amyloid nucleation score result is “inactive”. Next, MCTSGGISG: 0.346 ± 0.5; TMIYMHRLLLNVVDVCCHWF: 0.261 ± 0.74. As to DKRPALFVYSVCRVSSIR, the amyloid nucleation score was -1.26 ± 0.49.

RLRAQSHCAVAAGRNMEPWA yielded an amyloid nucleation score of 5.986 ± 0.043. To PPLLSISYKRRRVMFHFHVF belongs “inactive”. To PKFLSFADSAFLICCRAIVF belongs 6 ± 0.08; to QIFKDSWSNIFRVYSCAVGM, 4.33 ± 0.062; to IIRYTSILWKINGSGVNFWF, -0.67 ± 0.55. The substance VPSRGLF returned an amyloid nucleation score of 0.815 ± 0.4. Next, ILHPGSNLPRCRDMCILKGW: -0.226 ± 0.54; HFCYKMRLKDDCVCFKGYTI: 4.03 ± 0.058; VQLWYILITKMVR: -1.02 ± 1. Next, QQMSIHRYADGVFELGIPVM: 0.11 ± 0.54. Next, LYTQESYSDSFVNSLRCSKV: -0.064 ± 1.1. In turn, LALSTCFYSWIVLAMFFHRK gave an amyloid nucleation score of 3.16 ± 0.11.

In the case of NEMGFSHISGEMCAP, the amyloid nucleation score is -0.882 ± 0.24.

VNCCDFVVC came in with an amyloid nucleation score of -0.063 ± 0.49. Next, GGKFSVIGVGHLLDGEH: 1.14 ± 0.15; FVYVVEGVWEKGIKFFMIFK: -0.913 ± 1.1. Next, WLSSGAVRVKGCGFYNSRYN: “inactive”. Next, SGLSAVGSLGVNIEISSFVR: -0.983 ± 0.78. For the substance NSVDSRWGDQLARICIHGMT, the amyloid nucleation score came out at 0.141 ± 0.42. Consider SYRNTIWVSINALGVSWEAS, for which the amyloid nucleation score is 2.52 ± 0.078.

Consider DSPFLQNLMWNIFVGRIATM, for which the amyloid nucleation score is -0.272 ± 0.31. To SRHYYRFHTFAVVGWLSLYW belongs -0.849 ± 1.1. Consider WIIHMSSEAYYPSSFGRIVI, for which the amyloid nucleation score is -0.872 ± 1.1. To YVRFEVLRWLLYRYTMVSQD belongs 0.661 ± 0.49; to CQLLMFGSMYVHSYERGTYW, 2.67 ± 0.064. Next, ILLNTSYVYLTDSMEFTVGL: 2.15 ± 0.14; TCTQPFLVGCVERSLYES: -0.317 ± 0.28; TLTLSTIHWNLY: 6.13 ± 0.066. As for LLHDDVNTYLVRTVRR, the amyloid nucleation score came to 0.322 ± 0.31. To YMHSICLFIVDNKIDYLRGY belongs 0.541 ± 0.74; to NDKFCATDESVRSRSI, 0.042 ± 0.37. Next, RDLSLNFIHPLRFGY: “inactive”; KCPSESMRKFF: 0.672 ± 0.53. Take VIRRGMFIQPAFAKMLSAWF: the amyloid nucleation score was -0.231 ± 1.

For SGGSDMQHS, the amyloid nucleation score was 1.61 ± 0.3. With LYRMYPWVLVGCELFRMVCR, the amyloid nucleation score is 0.108 ± 0.38. Next, KWDIIYNNDVGNLCVLVSN: -0.817 ± 1; TGVYRWSEMSMVMFFFHVEC: -0.226 ± 0.63. To GGNFLVCYVFDDSCHWIMMY belongs 4.56 ± 0.086; to MLYVAVTS, 0.459 ± 0.25. As to TAWSMNVHVSANVSTCRPLR, the amyloid nucleation score stood at 1.87 ± 0.2. NFWYCYTLSDNNYFF displayed an amyloid nucleation score of 7.41 ± 0.038.

As for ITSLRSLRYFHVEFVSRLWL, the amyloid nucleation score worked out at 0.554 ± 0.81.

On to SETNMVHPYAIYLKVRYANN, for which the amyloid nucleation score was determined as 0.566 ± 0.24.

EPSCTATKFVSGTMF: the amyloid nucleation score came out at 2.17 ± 0.11. Next, RFSYGVEANVMSPINTFLQW: 0.77 ± 0.23; PYVTFITLCSAFKYVYKCWY: 5.448 ± 0.047; SKRVDIKHSMRARDGLNRFW: -0.226 ± 1.1.

Consider SIFITATCNVH, for which the amyloid nucleation score entry is “inactive”. To YCNIPNRPVSKALRNHLS belongs “inactive”; to SRSSGTDFMYFDRFLPTRWA, -0.805 ± 1.1; to CGLVAVNDYLGVRVGLFHIC, -1.01 ± 1.1. Substance HPFSSRSS came in with an amyloid nucleation score of -0.018 ± 1.1. Next, WLSDRASCYRESRCVEQ: -0.742 ± 0.42; LLLINLLFSASKLALSM: -0.679 ± 1.1.

The substance CSCMDRFL registered an amyloid nucleation score of 1.41 ± 0.15. Next, RRGSSTIGADKESQVSLQN: -0.724 ± 1. NATLSSFYSLGNEMHSGHSV: the amyloid nucleation score is -0.209 ± 0.48. To CADAITRHAGTFVAGWSW belongs 0.865 ± 0.17; to HIVEIGALYRAIYLKVKWRQ, 2.62 ± 0.21; to NINDEPPNNHMMHTITHKWT, “inactive”.

SYLCDPLRETTYSPKYLRST came in with an amyloid nucleation score of 0.667 ± 0.38. RYRFVIMDDLIIMNAFNSIE returned an amyloid nucleation score of 4.48 ± 0.12. Next, FNSWLV: -0.86 ± 1.1; PVYMFKYLVTLIWPHSKATF: 0.102 ± 0.34; QFIEMEKIDVVFQEYIGEEG: -0.265 ± 0.41.

The substance AYGQKNVSSRSLTFV registered an amyloid nucleation score of 3.41 ± 0.15. Next, EPVGYSMLGHVIKTVLVLAR: “inactive”. As for ITYYHCVSHARNTKNQLTDF, the amyloid nucleation score entry is “inactive”.

For the substance LTKGRSFCVNPFHITVDGQE, the amyloid nucleation score was -0.761 ± 0.23. Consider LTAWIC, for which the amyloid nucleation score turned out to be 0.285 ± 1. Next, WDSSPGISVVSIRLEQ: 5.431 ± 0.036; YDGANWRSKGWLDLFSIMKQ: -1.23 ± 0.75. Next, GCTRE: 1.36 ± 0.53; CNHIRSKVKVVVCTGHCAVF: 4.62 ± 0.11. As for HIVAGCIVQLANILWDRAEG, the amyloid nucleation score came out at 0.57 ± 0.38. Next, RSQSSYRIVQWIMYTCDNVL: “inactive”; LVNWFVDYRSDVSHLQTGKV: 1.08 ± 0.36. To VPRLILSIYFIICLTTQEAV belongs -0.24 ± 0.65; to INVVRTNIKYTMTFCIEGTN, 7.306 ± 0.032; to HVYVGL, -0.578 ± 1.1.

NFMNSP: the amyloid nucleation score is -0.33 ± 1.1.
